± gives the uncertainty stated by the source.

Our source for the abundance fitness values is the Human Domainome abundance scans (Beltran et al. 2025).

B1: Spectrin alpha chain, erythrocytic 1, residues 979 to 1036; numbered along this chain, P02549 (parent)
chain: EQRVMALYDFQARSPREVTMKKGDVLTLLSSINKDWWKVEAADHQGIVPAVYVRRLAH

Variants of B1 are the subject of this series. Briefly: abundance fitness (aPCA) (normalised: wild type 0, dead -1); higher = more abundant; growth selection in yeast, the domain comes from the species named. Conditions: Homo sapiens.
As for EQRVMALYDFQARSPREVTMKKGDVLTLLSSINKDWWKVEAADHQGIVEAVYVRRLAH [P49E], the abundance fitness was -0.854 ± 0.18. As for EQRVMALYDFQARSPREVTMKKGDVLTLLSSINKDWWKVEAADHQGIVQAVYVRRLAH [P49Q], the figure is -0.898 ± 0.21; as for EQRVMALYDFQARSPREVTMKKGDVLTLLSSINKDWWKVEAADHQGIVKAVYVRRLAH [P49K], -0.47 ± 0.42; as for EQRVMALYDFQARSPREVTMKKGDVLTLLSSINKDWWKVEAADHQGIVSAVYVRRLAH [P49S], -0.497 ± 0.42. For EQRVMALYDFQARSPREVTMKKGDVLTLLSSINKDWWKVEAADHQGIVAAVYVRRLAH [P49A], the abundance fitness is -0.932 ± 0.38. For the variant EQRVMALYDFQARSPREVTMKKGDVLTLLSSINKDWWKVEAADHQGIVLAVYVRRLAH [P49L], the abundance fitness is -0.887 ± 0.36. As to EQRVMALYDFQARSPREVTMKKGDVLTLLSSINKDWWKVEAADHQGIVGAVYVRRLAH [P49G], the abundance fitness was -0.44 ± 0.25. For EQRVMALYDFQARSPREVTMKKGDVLTLLSSINKDWWKVEAADHQGIVTAVYVRRLAH [P49T] the value was -0.477 ± 0.37; for EQRVMALYDFQARSPREVTMKKGDVLTLLSSINKDWWKVEAADHQGIVNAVYVRRLAH [P49N], -0.694 ± 0.14. Regarding EQRVMALYDFQARSPREVTMKKGDVLTLLSSINKDWWKVEAFDHQGIVPAVYVRRLAH [A42F], the abundance fitness was -0.002 ± 0.4. Take EQRVMALYDFQARSPREVTMKKGDVLTLLSSINKDWWKVEAHDHQGIVPAVYVRRLAH [A42H]: the abundance fitness is -0.031 ± 0.33. On to EQRVMALYDFQARSPREVTMKKGDVLTLLSSINKDWWKVEAGDHQGIVPAVYVRRLAH [A42G], for which the abundance fitness came out at 0.455 ± 0.059. As to EQRVMALYDFQARSPREVTMKKGDVLTLLSSINKDWWKVEAEDHQGIVPAVYVRRLAH [A42E], the abundance fitness is -0.089 ± 0.25. For EQRVMALYDFQARSPREVTMKKGDVLTLLSSINKDWWKVEATDHQGIVPAVYVRRLAH [A42T], the abundance fitness was -0.503 ± 0.24. With EQRVMALYDFQARSPREVTMKKGDVLTLLSSINKDWWKVEANDHQGIVPAVYVRRLAH [A42N], the abundance fitness is 0.315 ± 0.2. EQRVMALYDFQARSPREVTMKKGDVLTLLSSINKDWWKVEARDHQGIVPAVYVRRLAH [A42R]: the abundance fitness is -0.243 ± 0.16. Regarding EQRVMALYDFQARSPREVTMKKGDVLTLLSSINKDWWKVEASDHQGIVPAVYVRRLAH [A42S], the abundance fitness was -0.133 ± 0.25. As for EQRVMALYDFQARSPREVTMKKGDVLTLLSSINKDWWKVEALDHQGIVPAVYVRRLAH [A42L], the abundance fitness was found to be 0.178 ± 0.16. For the variant EQRVMALYDFQARSPREVTMKKGDVLTLLSSINKDWWKVEAQDHQGIVPAVYVRRLAH [A42Q], the abundance fitness is -0.021 ± 0.077. For EQRVMALYDFQARSPREVTMKKGDVLTLLSSINKDWWKVEAPDHQGIVPAVYVRRLAH [A42P], the abundance fitness was -0.223 ± 0.36. As for EQRVMALYDFQARSPREVTMKKGDVLTLLSSINKDWWKVEAADHIGIVPAVYVRRLAH [Q45I], the abundance fitness is 0.027 ± 0.36.

Consider EQRVMALYDFQARSPREVTMKKGDVLTLLSSINKDWWKVEAADHLGIVPAVYVRRLAH [Q45L], for which the abundance fitness is -0.713 ± 0.19. Turning to EQRVMALYDFQARSPREVTMKKGDVLTLLSSINKDWWKVEAADHCGIVPAVYVRRLAH [Q45C], the abundance fitness is -0.103 ± 0.24. For EQRVMALYDFQARSPREVTMKKGDVLTLLSSINKDWWKVEAADHRGIVPAVYVRRLAH [Q45R], the abundance fitness is -0.037 ± 0.066. As for EQRVMALYDFQARSPREVTMKKGDVLTLLSSINKDWWKVEAADHTGIVPAVYVRRLAH [Q45T], the figure is 0.516 ± 0.14; as for EQRVMALYDFQARSPREVTMKKGDVLTLLSSINKDWWKVEAADHGGIVPAVYVRRLAH [Q45G], -0.754 ± 0.16. For the variant EQRVMALYDFQARSPREVTMKKGDVLTLLSSINKDWWKVEAADHVGIVPAVYVRRLAH [Q45V], the abundance fitness was 0.1 ± 0.17.

For the variant EQRVMALYDFQARSPREVTMKKGDVLTLLSSINKDWWKVEAADHKGIVPAVYVRRLAH [Q45K], the abundance fitness is 0.09 ± 0.12.

As to EQRVMALYDFQARSPREVTMKKGDVLTLLSSINKDWWKVEAADHWGIVPAVYVRRLAH [Q45W], the abundance fitness was -0.889 ± 0.42. With EQRVMALYDFQARSPREVTMKKGDVLTLLSSINKDWWKVEAADHEGIVPAVYVRRLAH [Q45E], the abundance fitness stood at 0.039 ± 0.4. As for EQRVMALYDFQARSPREVTMKKGDVLTLLSSINKDWWKVEAADHDGIVPAVYVRRLAH [Q45D], the figure is -0.498 ± 0.27; as for EQRVMALYDFQARSPREVTMKKGDVLTLLSSINKDWWKVEAADHAGIVPAVYVRRLAH [Q45A], -0.171 ± 0.13; as for EQRVMALYDFQARSPREVTMKKGDVLTLLSSINKDWWKVEAADHSGIVPAVYVRRLAH [Q45S], -0.004 ± 0.094.

In the case of EQRVMALYDFQARSPREVTMKKGDVLTLLSSINKDWWKVEAADHPGIVPAVYVRRLAH [Q45P], the abundance fitness is -0.565 ± 0.28. EQRVMALYDFQARSPREVTMKKGDVLTLLSSINKDWWKVEAAIHQGIVPAVYVRRLAH [D43I]: the abundance fitness is -0.387 ± 0.19. For EQRVMALYDFQARSPREVTMKKGDVLTLLSSINKDWWKVEAAQHQGIVPAVYVRRLAH [D43Q] the value was 0.413 ± 0.21; for EQRVMALYDFQARSPREVTMKKGDVLTLLSSINKDWWKVEAAWHQGIVPAVYVRRLAH [D43W], -0.622 ± 0.23; for EQRVMALYDFQARSPREVTMKKGDVLTLLSSINKDWWKVEAATHQGIVPAVYVRRLAH [D43T], -0.223 ± 0.23. As for EQRVMALYDFQARSPREVTMKKGDVLTLLSSINKDWWKVEAAVHQGIVPAVYVRRLAH [D43V], the figure is -0.537 ± 0.23; as for EQRVMALYDFQARSPREVTMKKGDVLTLLSSINKDWWKVEAAGHQGIVPAVYVRRLAH [D43G], 0.567 ± 0.076. As to EQRVMALYDFQARSPREVTMKKGDVLTLLSSINKDWWKVEAANHQGIVPAVYVRRLAH [D43N], the abundance fitness was -0.105 ± 0.31.

For EQRVMALYDFQARSPREVTMKKGDVLTLLSSINKDWWKVEAARHQGIVPAVYVRRLAH [D43R], the abundance fitness was -0.708 ± 0.34. For EQRVMALYDFQARSPREVTMKKGDVLTLLSSINKDWWKVEAAPHQGIVPAVYVRRLAH [D43P], the abundance fitness was -0.552 ± 0.38.

As for EQRVMALYDFQARSPREVTMKKGDVLTLLSSINKDWWKVEAALHQGIVPAVYVRRLAH [D43L], the abundance fitness is -0.876 ± 0.36. With EQRVMALYDFQARSPREVTMKKGDVLTLLSSINKDWWKVEAAHHQGIVPAVYVRRLAH [D43H], the abundance fitness is 0.129 ± 0.26.
